Test results as given in paper PMC4571279 (Nature Communications, 2015).

Target: T1, recombinant MERS-CoV S1 protein (MERS-CoV, isolate EMC/2012 (strain of …, UniProt K0BRG7))
T1 construct: source: bought: Sino Biological Inc
Experiment: ELISA
Details: both partners purified

B1:  (Fab, V domains shown)
VH: QVQLVQSGAEVKKPGSSVKVSCKASGGTFSSYAISWVRQAPGQGLEWMGGIIPILGTASYAQKFQGRVTITADKSTSTAYMELSSLRSEDTAVYYCARVGYCSSTSCNRGAFDIWGQGTMVTVSS
VL: DIQLTQSPSSLSASVGDRVTITCRASQGIRNDLGWYQQKPGKAPKLLIYAASSLQSGVPSRFSGSGSGTDFTLTISSLQPEDFATYYCQQLNSYPLTFGGGTKVEIK
notes: also called m336 F54L
- fold reduction (EC50) against wild-type m336: ≥ 1000 fold

B2:  (Fab, V domains shown)
VH: QVQLVQSGAEVKKPGSSVKVSCKASGGTFSSYAISWVRQAPGQGLEWMGGIIPIFGTASYAQKFQGRVTITADESTSTAYMELSSLRSEDTAVYYCARVGYCSSTSCNRGAFDIWGQGTMVTVSS
VL: DIQLTQSPSSLSASVGDRVTITCRASQGIRNDLGWYQQKPGKAPKLLIYAASSLQSGVPSRFSGSGSGTDFTLTISSLQPEDFATYYCQQLNSYPLTFGGGTKVEIK
notes: also called m336 K73E
- fold reduction of binding affinity against m336: ≥ 10 fold
